From US20230009582A1 (MEMO THERAPEUTICS, published 2023) come the findings set out here.

Assay [1] has as its target T1, Siglec-7-Fc (in-house production).
T1 construct: The entry holds the Siglec-7 part and the Fc together; also called Siglec-7-Fc protein
Nature of the assay: ELISA, coated Siglec-7-Fc 1 µg/ml, antibody at 5 µg/ml (33 nM), Abs 450 nm, n=3. As for the experimental part:
(§1) Specificity towards Siglec-5, Siglec-7, Siglec-8, Siglec-15 and Siglec-9 was assayed in enzyme-linked immunosorbent assay (ELISA) using 96 well half-area ELISA plates (Corning). Siglec-5-Fc (R&D systems), Siglec-7-Fc (in-house production, Siglec-7-Fc protein used had the following amino acid sequence:
(§2) (SEQ ID NO: 59)) […] […] […] […] […] […] […] […] […] […] […] […], Siglec-8-Fc (R&D systems), Siglec-15- Fc (R&D systems) and Siglec-9-Fc (in-house production, SEQ ID NO: 11) were coated at 1 μg/ml in 50 mM carbonate-bicarbonate buffer pH 9.6 for 15-20 hours at 4° C.
(§3) Antigens were washed away (Tecan Hydrospeed) and plates were blocked with 5% skimmed milk in phosphate-buffered saline (PBS). After washing the plates, antibodies were added at 5 μg/ml (33 nM) in 0.5% milk PBS in triplicates. Plates with antibodies were incubated for 1 hour at room temperature. Plates were washed and bound antibodies were detected by horseradish peroxidase (HRP)-labeled polyclonal anti-rabbit IgG antibody (Biolegend) or anti-human Fab fragment for mAbA (Sigma Aldrich). 3,3′,5,5′-Tetramethylbenzidine (TMB; Sigma Aldrich) development was stopped by addition of sulfuric acid and absorbance was detected at 450 nm (Tecan, CM […] MONO 200).
(In an ELISA, binding on a coated surface is turned into a signal by an enzyme label.)

Assay [2] concerns the target T2, Siglec-15-Fc (R&D systems) (UniProt Q6ZMC9 20-263, limits assumed).
T2 construct: Bought reagent; not shown: Fc part of the bought fusion; not described
T2 sequence (looked up): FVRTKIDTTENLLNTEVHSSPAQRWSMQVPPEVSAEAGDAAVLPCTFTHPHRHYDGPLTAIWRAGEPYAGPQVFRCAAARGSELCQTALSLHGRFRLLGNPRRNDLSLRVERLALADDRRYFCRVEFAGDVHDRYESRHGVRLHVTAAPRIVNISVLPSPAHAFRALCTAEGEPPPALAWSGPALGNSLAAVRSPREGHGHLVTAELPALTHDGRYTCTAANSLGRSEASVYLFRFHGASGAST
Nature of the assay: ELISA, coated Siglec-15-Fc 1 µg/ml, single antibody concentration, Abs 450 nm, n=3. The procedure: as §1, §2, §3

In assay [3] the target is T1, Siglec-7-Fc (in-house production). Nature of the assay: ELISA, coated Siglec-7-Fc 1 µg/ml, single antibody concentration, anti-human Fab detection, Abs 450 nm, n=3. As for the experimental part:
as §1, §2, §3

Assay [4] addresses Siglec-9 protein (construct not stated; antigen of Examples 3 and 4) (human, UniProt Q9Y336 18-348, limits assumed). Nature of the assay: ELISA, coated Siglec-9 1 µg/ml, antibody titrated, anti-human Fab detection, Abs 450 nm, three-parameter fit, n=3. The procedure:
FIG. 2: Binding curves of monoclonal antibodies (68D4 and 224B1; comparative monoclonal antibodies mAbA and 5C6 & negative control 53C3) towards Siglec-9 as analysed by ELISA. Binding of the monoclonal antibody to Siglec-9, as determined by measurement of the accumulated coloured product at 450 nm after stopping the reaction, is plotted against the concentration of the monoclonal antibody under evaluation.
Antibody binding affinity towards Siglec-9 was measured by a dilution series of the analysed antibodies on a fixed concentration of Siglec-9 protein in ELISA. To this end, Siglec-9 was coated at 1 μg/ml in 50 mM carbonate-bicarbonate buffer pH 9.6 for 15-20 hours at 4° C. Antigen solution was washed away (Tecan Hydrospeed) and plates were blocked with 5% skimmed milk in phosphate-buffered saline (PBS) for 1 hour at room temperature. Plates were washed and antibodies were added at concentrations of 0-420 nM. […] Bound antibodies were detected by addition of horseradish peroxidase (HRP)-coupled secondary antibodies. Rabbit antibodies were detected by polyclonal anti-rabbit IgG antibody (Biolegend), mAbA by anti-human Fab fragment (Sigma Aldrich). […] Absorbance was detected at 450 nm (Tecan, CM […] MONO 200). Data were fitted and EC50 values were determined by three-parameter analysis in GraphPad Prism (GraphPad Software)

Assay [5] has as its target T3, Siglec-9 expressed on cells (human, UniProt Q9Y336 18-463).
T3 construct: also called monocyte-expressed Siglec-9
Nature of the assay: flow cytometry on human CD14+ monocytes (PBMC), mean RFU of the anti-human secondary antibody, three-parameter fit. As for the experimental part:
Human ex vivo PBMC were stained with fluorescence-labeled (allophycocyanin, APC) antibody to the monocyte marker CD14 (Biolegend) in assay buffer (0.5% (v/v) heat-inactivated fetal bovine serum (Gibco), 2 mM EDTA in phosphate-buffered saline). Subsequently, cells were incubated with antibodies under evaluation at various concentrations (67 nM-0.38 pM). After a washing step cells were incubated with fluorescence-labeled (Brilliant Violet 421™) secondary antibody against human IgG (mAbA) or rabbit IgG (all other monoclonal antibodies under evaluation; both secondary antibodies from Biolegend).
Binding of Siglec-9-specific antibodies to monocytes (CD14-positive life cells) was analysed with a CytoFLEX flow cytometer (Beckham Coulter's). The mean fluorescence intensity of the secondary antibody staining in the CD14-positive population at each dilution was determined using Flow Jo software (BD). Datapoints generated by this analysis were fitted and EC50 values were determined by three-parameter analysis in GraphPad Prism (GraphPad Software)
In general terms: In flow cytometry, cells or beads pass a laser one at a time.

T1 sequence (chain, as listed by the source limits assumed): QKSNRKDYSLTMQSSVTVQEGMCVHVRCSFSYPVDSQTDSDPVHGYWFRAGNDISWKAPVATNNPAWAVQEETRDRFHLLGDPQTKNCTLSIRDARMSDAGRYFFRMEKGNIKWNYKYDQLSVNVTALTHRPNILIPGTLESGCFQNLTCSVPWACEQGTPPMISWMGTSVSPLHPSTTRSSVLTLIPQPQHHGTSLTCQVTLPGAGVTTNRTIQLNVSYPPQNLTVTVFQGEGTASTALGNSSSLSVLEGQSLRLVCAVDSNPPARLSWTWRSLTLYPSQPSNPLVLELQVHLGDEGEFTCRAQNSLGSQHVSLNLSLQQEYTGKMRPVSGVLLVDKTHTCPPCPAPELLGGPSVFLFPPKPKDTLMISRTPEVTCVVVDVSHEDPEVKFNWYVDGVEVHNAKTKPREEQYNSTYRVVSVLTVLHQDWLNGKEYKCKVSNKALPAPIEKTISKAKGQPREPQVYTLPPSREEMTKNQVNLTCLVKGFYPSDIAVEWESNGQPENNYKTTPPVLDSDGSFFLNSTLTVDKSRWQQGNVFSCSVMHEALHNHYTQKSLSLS
T3 sequence (Q9Y336 18-463 limits assumed): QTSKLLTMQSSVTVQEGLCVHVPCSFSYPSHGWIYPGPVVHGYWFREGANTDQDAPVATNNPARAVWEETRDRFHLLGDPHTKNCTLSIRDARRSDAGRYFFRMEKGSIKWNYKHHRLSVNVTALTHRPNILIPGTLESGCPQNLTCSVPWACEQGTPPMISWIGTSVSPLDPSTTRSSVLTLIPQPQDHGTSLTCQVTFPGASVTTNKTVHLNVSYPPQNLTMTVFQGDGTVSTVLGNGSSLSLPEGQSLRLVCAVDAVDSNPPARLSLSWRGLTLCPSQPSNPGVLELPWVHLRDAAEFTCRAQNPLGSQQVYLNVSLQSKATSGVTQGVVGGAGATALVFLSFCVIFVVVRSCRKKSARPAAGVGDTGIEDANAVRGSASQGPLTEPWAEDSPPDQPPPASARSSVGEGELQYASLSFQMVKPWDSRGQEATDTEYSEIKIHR
Sequence of Siglec-9 protein (construct not stated; antigen of Examples 3 and 4) (Q9Y336 18-348 limits assumed): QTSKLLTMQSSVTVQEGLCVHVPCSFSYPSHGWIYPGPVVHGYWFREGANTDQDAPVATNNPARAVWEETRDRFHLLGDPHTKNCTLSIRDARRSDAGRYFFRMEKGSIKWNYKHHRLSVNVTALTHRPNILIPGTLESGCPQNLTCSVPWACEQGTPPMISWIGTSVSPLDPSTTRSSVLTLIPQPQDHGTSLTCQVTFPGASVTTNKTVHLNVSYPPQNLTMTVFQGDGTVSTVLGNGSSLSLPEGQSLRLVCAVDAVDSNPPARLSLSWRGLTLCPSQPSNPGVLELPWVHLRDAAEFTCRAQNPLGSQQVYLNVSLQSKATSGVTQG

B1: monoclonal antibody 224B1 (rabbit) (antibody, V domains shown)
VH: QSVEESGGRLVTPETPLTLTCTASGFSLSSYYMSWVRQAPGKGLEWIGYIWTDGSAHYATWTKGRFTISKTSSTTVDLKITSPTTEDTATYFCVRANSGSHTYIEKFNLWGPGTLVTVSS
VL: DVVMTQTPASVEATVGGSVTIKCQASPSINDELSWYQQKPGQRPTLLIYEASALESGVPSRFKGSGSGTEFTLTIGDLECADAATYYCQCTYGSRSDISYGNTFGGGTEVVVKG
Consider B1, for which the figures for the binding result in assay [1] and in assay [2] were “binds” and “no binding (tested: 5 µg/ml)”, respectively.

B2: comparative monoclonal antibody mAbA (WO 2017/153433), mouse-human chimera (antibody, human IgG1, kappa, V domains shown)
VH: QVQLQQPGAELVKPGSPVKLSCKASYFTFTSYWMHWVRQRPGQGLEWIGEINPSNGHTNYNEKFESKATLTVDRSSSTAYMQLSSLTSEDSAVFYCANGVESYDFDDALDYWGQGTSVTVSS
VL: DIQMTQTTSSLSASLGDRVTISCRASQDINNYLNWYQQKPDGTIKLLIYYTSRLHSGVPSRFSGSGSGTDYSLTINNLEQEDIATYFCQQGNTLPFTFGGGTKLEIKR
B2: the binding result in assay [3] was “no binding (tested: 5 µg/ml)”. The EC50 in assay [4] came to 0.42 nM; in assay [5], 0.58 nM.

For orientation: EC50 means the concentration at which the effect is half-maximal.
